From patent US20210077621A1 (published 2021)

Molecular target: human MASP-2 (human, UniProt O00187 16-686)
Assay: cell-based or functional assay

Sequence of human MASP-2 (O00187 16-686): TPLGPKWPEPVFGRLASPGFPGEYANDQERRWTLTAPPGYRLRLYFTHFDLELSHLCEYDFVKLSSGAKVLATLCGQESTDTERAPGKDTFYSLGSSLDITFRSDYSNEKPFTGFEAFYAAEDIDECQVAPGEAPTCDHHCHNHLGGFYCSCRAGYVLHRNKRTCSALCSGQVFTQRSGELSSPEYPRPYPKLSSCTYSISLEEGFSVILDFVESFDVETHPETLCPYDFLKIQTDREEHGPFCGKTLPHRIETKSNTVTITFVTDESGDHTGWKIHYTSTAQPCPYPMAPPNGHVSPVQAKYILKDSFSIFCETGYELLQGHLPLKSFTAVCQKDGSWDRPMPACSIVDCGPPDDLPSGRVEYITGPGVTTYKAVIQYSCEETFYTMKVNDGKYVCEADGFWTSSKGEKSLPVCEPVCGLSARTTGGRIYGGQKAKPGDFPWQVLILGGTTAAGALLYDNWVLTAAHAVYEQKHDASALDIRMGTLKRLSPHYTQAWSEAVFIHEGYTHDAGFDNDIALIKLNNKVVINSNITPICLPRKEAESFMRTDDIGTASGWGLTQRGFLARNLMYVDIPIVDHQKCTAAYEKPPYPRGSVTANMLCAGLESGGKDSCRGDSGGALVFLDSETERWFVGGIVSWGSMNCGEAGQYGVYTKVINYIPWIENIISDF

1% human serum C3 assay (IC50 nM): 26 nM | 90% human serum C3 assay (IC50 nM): > 1000 nM | 90% human serum C4 assay (IC50 nM): 140 nM
B1: 17D20m_d3521N11 (scFv, V domains shown)
VH: QVTLKESGPVLVKPTETLTLTCTVSGFSLSRGKMGVSWIRQPPGKALEWLAHIFSSDEKSYRTSLKSRLTISKDTSKNQVVLTMTNMDPVDTATYYCARIRRGGIDYWGQGTLVTVSS
VL: SYELIQPPSVSVAPGQTATITCAGDNLGKKRVHWYQQRPGQAPVLVIYDDSDRPSGIPDRFSASNSGNTATLTITRGEAGDEADYYCQVWDIATDHVVFGGGTKLTVL
